Experimental data taken from patent publication US11643670B2, “Methods of enhancing chromosomal homologous recombination” (Massachusetts Institute of Technology, priority 2018, dated 2023).

Legend:
[1] = system: Chd2 locus; test: Chd2^R1684H knock-in by PNI/CPI with RAD51, genotyping of F0 pups; assay type: in vivo, mouse; settings: 18 F0 pups, PNI and CPI, RAD51 protein 10 ng/μL
Procedure: (§1) tracrRNA, crRNAs, and ssODNs were synthesized by Integrated DNA Technologies (TABLE 1). All injection mixtures were prepared in a final volume of 50 μL according to the following methodology: Using RNase-free water, reagents, and consumables, crRNA (final concentration 0.61 μM), tracrRNA (final concentration 0.61 μM), and ultrapure Tris-HCl, pH 7.39 (final concentration 10 mM, ThermoFisher) were mixed and incubated at 95° C. for 5 minutes. The mixtures were cooled to room temperature for 10 minutes on the benchtop, and then, EnGen Cas9-NLS S. pyogenes (New England Biolabs) was added to a final concentration of 30 ng/μL. The mixtures were incubated at 37° C. for 15 minutes before adding any remaining components: ssODN (final concentration 3 ng/μL or 30 ng/μL), RAD51 (Creative Biomart, final concentration 10 ng/μL). Injection mixtures were stored on ice and briefly heated to 37° C. prior to injection. For experiments utilizing RS-1, embryos were cultured in KSOM-AA (EMD Millipore MR-121-D) with […] RS-1 (Sigma) dissolved in DMSO or DMSO (Sigma, 1:1000) for 24 hours, washed, and cultured in EmbryoMax FHM HEPES Buffered Medium (Sigma) until collection for genotyping.
Female mice (4-5 weeks old, C57BL/6N) were superovulated by IP injection of PMS (5 IU/mouse, three days prior to microinjection) and hCG (5 IU/mouse, 47 hours after PMS injection) and then paired with males. […]

[2] = system: Tyr^C89S locus; test: Tyr^C89S knock-in by three-component CRISPR, genotyping/albino phenotype of F0 pups; assay type: in vivo, mouse
Procedure: as §1
For all experiments except those described in FIG. 6, the male pronucleus was injected. Injections performed for the CPI portion of FIG. 6 were targeted to the cytoplasm. […]

[3] = system: RAD51 puncta; test: Immunocytochemistry for RAD51 puncta in zygotes; assay type: cell-based, mouse
Procedure: Zygotes were fixed overnight at 4° C. in 4% PFA+0.1% Tween-20 in PBS and then briefly transferred to acidified Tyrode's (Sigma T1788) to remove the zona. After washing in PBS+0.1% Tween-20 (PBST), zygotes were permeabilized in PBS+1% Triton X-100 for 1 hour at 4° C. and then blocked for 1 hour at room temperature in blocking solution (PBS+3% BSA+5% normal goat serum). Primary antibody (rabbit anti-RAD51, Abcam ab63801, 1:500) was diluted in blocking solution and applied to coverslips overnight at 4° C. Cells were washed 3 times in PBST before application of secondary antibody (goat anti-rabbit IgG conjugate, Alexa Fluor 488, ThermoFisher A-11008) diluted in blocking solution for 1 hour at room temperature. Nuclei were counterstained with DAPI and coverslips were mounted to slides with Fluoromount Aqueous Mounting Medium (Sigma F4680). Cells were imaged on an Olympus Fluoview FV1000 confocal microscope with a 60× oil immersion objective and variable digital zoom. Raw image files were exported to FIJI^41 for Z-projection (sum slices), channel splitting, and scale bar generation.
Nonetheless, to more directly test the timing of zygotic ICHR, immunocytochemistry (ICC) was performed for RAD51 in uninjected, RAD51-injected, Cas9-injected (with Chd2-targeting crRNA), and Cas9- and RAD51-injected zygotes at three time points: G1 [9 hours post-fertilization (hpf), 1-hour post-injection (hpi)], G2 (14hpf, 6hpf, post S-phase), and M-phase (16hpf, 8hpi).

B1: RAD51: recombinant human strand exchange protein RAD51 (Creative Biomart RAD51-134H), transcript variant 4 (protein, UniProt Q06609 2-339, looked up)
DNA repair protein RAD51 …: AMQMQLEANADTSVEEESFGPQPISRLEQCGINANDVKKLEEAGFHTVEAVAYAPKKELINIKGISEAKADKILAEAAKLVPMGFTTATEFHQRRSEIIQITTGSKELDKLLQGGIETGSITEMFGEFRTGKTQICHTLAVTCQLPIDRGGGEGKAMYIDTEGTFRPERLLAVAERYGLSGSDVLDNVAYARAFNTDHQTQLLYQASAMMVESRYALLIVDSATALYRTDYSGRGELSARQMHLARFLRMLLRLADEFGVAVVITNQVVAQVDGAAMFAADPKKPIGGNIIAHASTTRLYLRKGRGETRICKIYDSPCLPEAEAMFAINADGVGDAKD
homozygous KI efficiency [1]: 55.5%
overall KI efficiency (pups with ≥1 KI allele/total pups) [1]: 61.1%
pups with albino phenotype from homozygous KI of the Tyr^C89S allele ([2]; F0 pups with RAD51, 12% without): 44.4%
homozygous KI rate relative to injection without RAD51 ([2]; Tyr locus): more than doubled
number of RAD51 puncta per zygote ([3]; G2 zygotes): single
zygotes Negative for RAD51 puncta ([3]; number of zygotes, G2 (14hpf)): 25
zygotes Positive for RAD51 puncta ([3]; number of zygotes, G2 (14hpf)): 6
